Experimental data taken from publication PMC12077092, “A novel micronemal protein MP38 is involved in the invasion of merozoites into erythrocytes” (mBio, 2025).
Where “and” joins values, the source holds several entries; their conditions need not be identical. Identical values can stand only once.

What was measured:
[1] = biological target: Pv41-Fc (PVX_000995, ectodomain E22-E384, human IgG1 Fc fusion) (Plasmodium vivax) (UniProt A5KAP6); assay: BLI; Gator system, anti-human IgG Fc (HFC) probes; Fc-tagged protein immobilised (10 µM, 120 s); His-tagged protein in serial dilution (1.5 to 100 µM by the methods; 1.5625-100 nM in the key of Fig. S3C), association 300 s, dissociation 600 s in PBS; 1:1 global fit; two experiments with different batches of protein
[2] = biological target: Pv41 full-length ectodomain, human IgG1-Fc-tagged (Plasmodium vivax); assay: BLI; Gator system, anti-human IgG Fc (HFC) probes; Fc-tagged protein immobilised (10 uM, 120 s); His-tagged protein 1.5 to 100 uM, 300 s association, 600 s dissociation in PBS; 1:1 global fit
[3] = biological target: Pv12 full-length ectodomain, His-tagged (Plasmodium vivax); assay: native gel or EMSA; blue native PAGE, 4%-16%, purified His-tagged recombinant protein, Coomassie stain
[4] = biological target: Pv12 full-length ectodomain, human IgG1-Fc-tagged (Plasmodium vivax); assay: BLI; Gator system, anti-human IgG Fc (HFC) probes; Fc-tagged protein immobilised (10 uM, 120 s); His-tagged protein 1.5 to 100 uM, 300 s association, 600 s dissociation in PBS; 1:1 global fit
[5] = biological target: Pv41 full-length ectodomain, His-tagged (Plasmodium vivax); assay: native gel or EMSA; blue native PAGE, 4%-16%, purified His-tagged recombinant protein, Coomassie stain
[6] = biological target: Pk12-Fc (PKNH_1137300, ectodomain F24-S344, human IgG1 Fc fusion) (Plasmodium knowlesi); assay: BLI; Gator system, anti-human IgG Fc (HFC) probes; Fc-tagged protein immobilised (10 µM, 120 s); His-tagged protein in serial dilution (1.5 to 100 µM by the methods; 1.5625-100 nM in the key of Fig. S3C), association 300 s, dissociation 600 s in PBS; 1:1 global fit; two experiments with different batches of protein
[7] = biological target: Pv12-Fc (PVX_113775, ectodomain F24-A339, human IgG1 Fc fusion) (Plasmodium vivax) (UniProt A5K1W7); assay: as above
[8] = biological target: T1, PvDBP-RII (194-521 aa.)-8His (Plasmodium vivax, UniProt P22290 194-521); assay: as above; settings: both partners purified
T1 construct: also called PvDBPII-His; PvDBP-RII-His; source: HEK293-EBNA1 cells, transiently transfected, purified from culture supernatant (Ni-NTA); not shown: 8xHis, C-terminal, kept

[9] = biological target: T2, P. vivax Duffy-binding protein region II, His-tagged (194-521 aa) (Plasmodium vivax, UniProt P22290 194-521); assay: BLI; Gator system, anti-human IgG Fc (HFC) probes; Fc-tagged protein immobilised (10 uM, 120 s); His-tagged protein 1.5 to 100 uM, 300 s association, 600 s dissociation in PBS; 1:1 global fit; settings: both partners purified
T2 construct: also called PvDBPII-His; PvDBP-RII-His; source: HEK293-EBNA1 (HEK293E), transiently transfected, purified from culture supernatant (Ni-NTA); not shown: 8xHis, C-terminal, kept

Pk12-8His (PKNH_1137300, ectodomain F24-S344) (domain or fragment)
Kd [1]: 184 nM and 160 nM | koff [1]: 0.0485 s⁻¹ and 0.0454 s⁻¹ | kon [1]: 263000 M⁻¹ s⁻¹ and 284000 M⁻¹ s⁻¹

Pv12 full-length ectodomain, His-tagged (domain or fragment)
Kd [2]: 0.53 nM | stoichiometry N [3]: 2

Pv12-8His (PVX_113775, ectodomain F24-A339) (from UniProt A5K1W7 24-339) (domain or fragment)
Kd [1]: 0.555 nM and 0.512 nM | koff [1]: 0.000174 s⁻¹ and 0.000156 s⁻¹ | kon [1]: 314000 M⁻¹ s⁻¹ and 305000 M⁻¹ s⁻¹

Pv41 full-length ectodomain, His-tagged (domain or fragment)
Kd [4]: 14.2 nM | stoichiometry N [5]: 2

Pv41-8His (PVX_000995, ectodomain E22-E384) (from UniProt A5KAP6 22-384) (domain or fragment)
Kd [6]: 19 nM and 11.4 nM | Kd [7]: 12.2 nM and 16.1 nM | koff [7]: 0.000662 s⁻¹ and 0.000803 s⁻¹ | kon [7]: 54300 M⁻¹ s⁻¹ and 50000 M⁻¹ s⁻¹

PvMP38 (PVX_110945), full-length ectodomain, His-tagged (domain or fragment)
Kd [4]: 2.46 nM

PvMP38-8His (PVX_110945, full-length ectodomain D28-K343) (domain or fragment)
Kd [6]: 0.833 nM and 0.96 nM | Kd [7]: 2.39 nM and 2.56 nM

B1: hDARC-Fc (human DARC M1-P63, human IgG1 Fc fusion) (Fc fusion, UniProt Q16570-1 1-63, looked up)
chain: MGNCLHRAELSPSTENSSQLDFEDVWNSSYGVNDSFPDGDYGANLEAAAPCHSCNLLDDSALP
notes: Duffy antigen/receptor for chemokines (DARC), human, NP_002027, region expressed M1-P63; also called human DARC-Fc; source: HEK293-EBNA1 cells, transiently transfected, purified from culture supernatant (HiTrap Protein G HP)
Kd [8]: 3 nM and 2.39 nM

B2: human DARC-Fc (1-63 aa) (Fc fusion, UniProt Q16570 1-63, looked up)
chain: B1 chain
notes: Duffy antigen/receptor for chemokines (DARC), human, residues 1-63; also called hDARC; source: HEK293-EBNA1 (HEK293E), transiently transfected, purified from culture supernatant (Protein G)
Kd [9]: 2.7 ± 0.43 nM
